According to the supplement of paper PMC10567573:

B1: KLHL14 (parent)
chain: CAVLDDSIYLVGGYSWSMGAYKSS
B2: RHOBTB3 (parent)
chain: QLQSMPSRELASMNLDIVDLLKKA

Variants of: B1
Assay: protein stability index of a GFP-peptide fusion (GPS, HEK-293T) (PSI 1-6); higher = more stable
Conditions: c terminus: a fixed tail appended
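Further: lentivirally expressed fusions sorted by FACS into six bins by GFP to DsRed ratio, PSI derived from sequencing read proportions per bin multiplied by bin number.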

Q: For YAVLDDSIYLVGGYSWSMGAYKSS, which protein stability index is on record?
A: 1.82

Q: Which protein stability index does the source give for FAVLDDSIYLVGGYSWSMGAYKSS here?
A: 3.37

Q: For EAVLDDSIYLVGGYSWSMGAYKSS, which protein stability index is on record?
A: 1.3

Q: With DAVLDDSIYLVGGYSWSMGAYKSS as the variant, how does the protein stability index read?
A: 2.42

Q: Which protein stability index does the source give for CAVLDDSIYRVGGYSWSMGAYKSS here?
A: 2.45

Q: Which protein stability index does the source give for CAVLDDSIYYVGGYSWSMGAYKSS here?
A: 2.08

Q: For CAVLDDSIYEVGGYSWSMGAYKSS, which protein stability index is on record?
A: 1.33

Q: Which protein stability index does the source give for CAVLDDSIYLVGGYSWSMGAYISS here?
A: 2.6

Q: With CAVLDDSIYLVGGYSWSMGAYVSS as the variant, how does the protein stability index read?
A: 3.73

Q: For CAVLDDSIYLVGGYSWSMGAYGSS, which protein stability index is on record?
A: 2.66

Q: With CAVLDDSIYLVGGYSWSMGAYHSS as the variant, how does the protein stability index read?
A: 3.04

Q: With CAVLDDSIYLVGGYSWSMGAYKSK as the variant, how does the protein stability index read?
A: 2.36

Q: Which protein stability index does the source give for CAVLDDSIYLVGGYSWSRGAYKSS here?
A: 2.11

Q: Which protein stability index does the source give for CAVLDDSIYLVGGYSWSPGAYKSS here?
A: 1.62

Q: With CAVLDDSIYLVGGYSWSSGAYKSS as the variant, how does the protein stability index read?
A: 1.73

Q: Which protein stability index does the source give for CAVLDDSIYLVGGYSWSMGAYKHS here?
A: 1.57

Q: For CAVLDDSIYLVGGYSWSMGAYKAS, which protein stability index is on record?
A: 2.92

Q: For CAVLDDSIYLVGGYSWSMGAYKNS, which protein stability index is on record?
A: 1.79

Q: Which protein stability index does the source give for CAVLDDSIYLVNGYSWSMGAYKSS here?
A: 3.82

Q: For CAVLDDSIYLVKGYSWSMGAYKSS, which protein stability index is on record?
A: 2.13

Q: For CAVLDDSIYLTGGYSWSMGAYKSS, which protein stability index is on record?
A: 1.83

Q: Which protein stability index does the source give for CAVLDDSIYLPGGYSWSMGAYKSS here?
A: 1.56

Q: For CAVLDDSIYLVGGYSWSMGYYKSS, which protein stability index is on record?
A: 2.9

Q: For CAVLDHSIYLVGGYSWSMGAYKSS, which protein stability index is on record?
A: 2.9

Q: For CAVLNDSIYLVGGYSWSMGAYKSS, which protein stability index is on record?
A: 4.88

Q: For CAVLLDSIYLVGGYSWSMGAYKSS, which protein stability index is on record?
A: 3.33

Q: With CAVLGDSIYLVGGYSWSMGAYKSS as the variant, how does the protein stability index read?
A: 1.41

Q: Which protein stability index does the source give for CAVLPDSIYLVGGYSWSMGAYKSS here?
A: 2.72

Q: Which protein stability index does the source give for CLVLDDSIYLVGGYSWSMGAYKSS here?
A: 2.18

Q: With CYVLDDSIYLVGGYSWSMGAYKSS as the variant, how does the protein stability index read?
A: 2.32

Q: For CAVLDDCIYLVGGYSWSMGAYKSS, which protein stability index is on record?
A: 3.58

Q: Which protein stability index does the source give for CAVLDDGIYLVGGYSWSMGAYKSS here?
A: 3.23

Q: With CAVLDDFIYLVGGYSWSMGAYKSS as the variant, how does the protein stability index read?
A: 2.81

Q: With CAVLDDSVYLVGGYSWSMGAYKSS as the variant, how does the protein stability index read?
A: 2.52

Q: With CAVLDDSTYLVGGYSWSMGAYKSS as the variant, how does the protein stability index read?
A: 3.78

Q: For CAVLDDSLYLVGGYSWSMGAYKSS, which protein stability index is on record?
A: 2.23

Q: Which protein stability index does the source give for CAVLDDSGYLVGGYSWSMGAYKSS here?
A: 1.22

Q: With CAVLDDSDYLVGGYSWSMGAYKSS as the variant, how does the protein stability index read?
A: 2.22

Q: Which protein stability index does the source give for CAVLDDSIYLVGGYMWSMGAYKSS here?
A: 4.83

Q: For CAVLDDSIYLVGGYIWSMGAYKSS, which protein stability index is on record?
A: 2.56

Q: With CAVLDDSIYLVGGYFWSMGAYKSS as the variant, how does the protein stability index read?
A: 2.58

Q: With CAELDDSIYLVGGYSWSMGAYKSS as the variant, how does the protein stability index read?
A: 2.77

Q: Which protein stability index does the source give for CAILDDSIYLVGGYSWSMGAYKSS here?
A: 2.56

Q: With CAHLDDSIYLVGGYSWSMGAYKSS as the variant, how does the protein stability index read?
A: 1.67

Q: Which protein stability index does the source give for CAVLDDSIYLVGGYSWSMGAVKSS here?
A: 2.6

Q: Which protein stability index does the source give for CAVGDDSIYLVGGYSWSMGAYKSS here?
A: 1.55

Q: Which protein stability index does the source give for CAVLDDSIYLVGGYSWQMGAYKSS here?
A: 2.79

Q: With CAVLDDSIYLVGGYSWLMGAYKSS as the variant, how does the protein stability index read?
A: 3.11

Q: With CAVLDDSIYLVGGYSWMMGAYKSS as the variant, how does the protein stability index read?
A: 1.49

Q: For CAVLDDSIYLVGGYSWIMGAYKSS, which protein stability index is on record?
A: 1.92

Q: With CAVLDDSINLVGGYSWSMGAYKSS as the variant, how does the protein stability index read?
A: 1.56

Q: For CAVLDDSIKLVGGYSWSMGAYKSS, which protein stability index is on record?
A: 1.36

Q: With CAVLDDSICLVGGYSWSMGAYKSS as the variant, how does the protein stability index read?
A: 3.86

Q: With CAVLDDSIYLVGVYSWSMGAYKSS as the variant, how does the protein stability index read?
A: 1.27

Q: Which protein stability index does the source give for CAVLDDSIYLVGCYSWSMGAYKSS here?
A: 2.36

Q: For CAVLDDSIYLVGGYSPSMGAYKSS, which protein stability index is on record?
A: 2.38

Q: With CAVLDDSIYLVGGYSYSMGAYKSS as the variant, how does the protein stability index read?
A: 2.02

Variants of: B2
Assay: as above
Conditions: c terminus: a fixed tail appended

Q: For QLQSMPSRELASMNLDIVDLLKMA, which protein stability index is on record?
A: 2.32

Q: For QLQSMPSRELASMNLDIVDLLKVA, which protein stability index is on record?
A: 2.81

Q: For QLQSMPSRELASMNLDIVDLLKLA, which protein stability index is on record?
A: 2.58

Q: With QLQSMPSRELASMNLDIVDLLKCA as the variant, how does the protein stability index read?
A: 2.57

Q: With QLQSMPSRELASMNLDIVDLLKIA as the variant, how does the protein stability index read?
A: 2.48

Q: For QLQSMPSRELASMNLDIVDLLKYA, which protein stability index is on record?
A: 2.71

Q: With QLQSMPSRELASMNLDIVDLLKWA as the variant, how does the protein stability index read?
A: 1.3

Q: Which protein stability index does the source give for QLQSMPSRELASMNLDIVDLLKSA here?
A: 3.05

Q: Which protein stability index does the source give for QLQSMPSRELASMNLDIVDLLKTA here?
A: 3.4

Q: With QLQSMPSRELASMNLDIVDLLKPA as the variant, how does the protein stability index read?
A: 3.22

Q: Which protein stability index does the source give for QLQSMPSRELASMNLDIVDLLKFA here?
A: 2.33

Q: Which protein stability index does the source give for QLQSMPSRELASMNLDIVDLLKEA here?
A: 3.69

Q: With QLQSMPSRELASMNLDIVDLLKRA as the variant, how does the protein stability index read?
A: 3.52

Q: With QLQSMPSRELASMNLDIVDLLKDA as the variant, how does the protein stability index read?
A: 4.03

Q: Which protein stability index does the source give for QLQSMPSRELASMNLDIVDLLKNA here?
A: 3.97

Q: Which protein stability index does the source give for QLQSMPSRELASMNLDIVDLLKHA here?
A: 3.05

Q: Which protein stability index does the source give for QLQSMPSRELASMNLDIVDLLKQA here?
A: 3.36

Q: With QLQSMPSRELASMNLDIVDLLKGA as the variant, how does the protein stability index read?
A: 3.16

Q: Which protein stability index does the source give for QLQSMPSRELASMNLDIVDLLKKE here?
A: 4.56

Q: For QLQSMPSRELASMNLDIVDLLKKH, which protein stability index is on record?
A: 3.77

Q: Which protein stability index does the source give for QLQSMPSRELASMNLDIVDLLKKI here?
A: 2.98

Q: Which protein stability index does the source give for QLQSMPSRELASMNLDIVDLLKKG here?
A: 3.92

Q: For QLQSMPSRELASMNLDIVDLLKKD, which protein stability index is on record?
A: 4.65

Q: For QLQSMPSRELASMNLDIVDLLKKY, which protein stability index is on record?
A: 3.35

Q: Which protein stability index does the source give for QLQSMPSRELASMNLDIVDLLKKM here?
A: 3.39

Q: With QLQSMPSRELASMNLDIVDLLKKN as the variant, how does the protein stability index read?
A: 4.14

Q: With QLQSMPSRELASMNLDIVDLLKKP as the variant, how does the protein stability index read?
A: 3.92

Q: For QLQSMPSRELASMNLDIVDLLKKL, which protein stability index is on record?
A: 3.56

Q: For QLQSMPSRELASMNLDIVDLLKKC, which protein stability index is on record?
A: 3.14

Q: With QLQSMPSRELASMNLDIVDLLKKK as the variant, how does the protein stability index read?
A: 3.54

Q: For QLQSMPSRELASMNLDIVDLLKKS, which protein stability index is on record?
A: 3.47

Q: For QLQSMPSRELASMNLDIVDLLKKQ, which protein stability index is on record?
A: 3.49

Q: With QLQSMPSRELASMNLDIVDLLKKW as the variant, how does the protein stability index read?
A: 4.13

Q: For QLQSMPSRELASMNLDIVDLLKKR, which protein stability index is on record?
A: 3.11

Q: Which protein stability index does the source give for QLQSMPSRELASMNLDIVDLLKKT here?
A: 3.95

Q: With QLQSMPSRELASMNLDIVDLLKKV as the variant, how does the protein stability index read?
A: 3.34

Q: With QLQSMPSRELASMNLDIVDLLKKF as the variant, how does the protein stability index read?
A: 3.41
